The values that follow come from patent publication US20220372164A1 (CITY OF HOPE, published 2022).

Assay [1] concerns the target T1, truncated EGFR (EGFRt) (human, UniProt P00533 334-668).
T1 construct: Expressed alone on T cells as the control without a CAR; also called huEGFRt; EGFRt marker
Briefly: flow cytometry, biotinylated soluble FcγR + SA-PE on T cells. The protocol: Antibodies and Flow Cytometry. Fluorochrome-conjugated isotype controls, anti-CD3, anti-CD4, anti-CD8, anti-CD45 and streptavidin were obtained from BD Biosciences (San Jose, Calif.). Biotinylated anti-Fc was purchased from Jackson ImmunoResearch Laboratories, Inc. (West Grove, Pa.). Generation of biotinylated-cetuximab was previously described (Wang et al. 2011a). […] The percentage of immunofluorescent cells were analyzed by a FACScalibur system (BD Biosciences), and the percentage of cells in a region of analysis were calculated using FCS Express V3 (De Novo Software, CA, USA).
To determine the efficacy of the different mutations/deletion in the CAR to affect FcR binding, flow cytometric analysis was performed using various human and murine biotinylated soluble FcγRs, and PE-streptavidin (SA-PE) to detect the binding of the FcγRs to the different cell populations.
(Flow cytometry measures light scatter and fluorescence of single cells or particles in a stream.)

The target of assay [2] is T1, truncated EGFR (EGFRt). Briefly: flow cytometry, titration of biotinylated soluble human FcγR1 + SA-PE on T cells.

B1: biotinylated soluble human FcγR2a (receptor, UniProt P12318 34-218, looked up)
chain: QAAAPPKAVLKLEPPWINVLQEDSVTLTCQGARSPESDSIQWFHNGNLIPTHTQPSYRFKANNNDSGEYTCQTGQTSLSDPVHLTVLSEWLVLQTPHLEFQEGETIMLRCHSWKDKPLVKVTFFQNGKSQKFSHLDPTFSIPQANHSHSGDYHCTGNIGYTLFSSKPVTITVQVPSMGSSSPMGI
modifications: biotinylated
notes: Bought reagent; also called huFcγR2a; Hu R2a
In the case of B1, the binding result with truncated EGFR (EGFRt) [1] is “no binding”.

B2: biotinylated soluble murine FcγR1 (receptor, UniProt P26151 25-297, looked up)
chain: EVVNATKAVITLQPPWVSIFQKENVTLWCEGPHLPGDSSTQWFINGTAVQISTPSYSIPEASFQDSGEYRCQIGSSMPSDPVQLQIHNDWLLLQASRRVLTEGEPLALRCHGWKNKLVYNVVFYRNGKSFQFSSDSEVAILKTNLSHSGIYHCSGTGRHRYTSAGVSITVKELFTTPVLRASVSSPFPEGSLVTLNCETNLLLQRPGLQLHFSFYVGSKILEYRNTSSEYHIARAEREDAGFYWCEVATEDSSVLKRSPELELQVLGPQSSAP
modifications: biotinylated
notes: Bought reagent; also called muFcγR1; Mu FcγR1
Take B2: the binding result in the assay with truncated EGFR (EGFRt) [1] is “no binding”.

B3: biotinylated soluble human Fc gamma receptor 1 (receptor, UniProt P12314 16-288, looked up)
chain: QVDTTKAVITLQPPWVSVFQEETVTLHCEVLHLPGSSSTQWFLNGTATQTSTPSYRITSASVNDSGEYRCQRGLSGRSDPIQLEIHRGWLLLQVSSRVFTEGEPLALRCHAWKDKLVYNVLYYRNGKAFKFFHWNSNLTILKTNISHNGTYHCSGMGKHRYTSAGISVTVKELFPAPVLNASVTSPLLEGNLVTLSCETKLLLQRPGLQLYFSFYMGSKTLRGRNTSSEYQILTARREDSGLYWCEAATEDGNVLKRSPELELQVLGLQLPTP
modifications: biotinylated
notes: Bought reagent; also called huFcγR1; human FcγR1
In the case of B3, the binding result with truncated EGFR (EGFRt) [2] was “no binding”.

B4: biotinylated soluble murine FcγR2b (receptor, UniProt P08101 30-207, looked up)
chain: THDLPKAVVKLEPPWIQVLKEDTVTLTCEGTHNPGNSSTQWFHNGRSIRSQVQASYTFKATVNDSGEYRCQMEQTRLSDPVDLGVISDWLLLQTPQLVFLEGETITLRCHSWRNKLLNRISFFHNEKSVRYHHYSSNFSIPKANHSHSGDYYCKGSLGRTLHQSKPVTITVQGPKSSR
modifications: biotinylated
notes: Bought reagent; also called muFcγR2b; Mu R2b
In the case of B4, the binding result with truncated EGFR (EGFRt) [1] was “no binding”.

B5: biotinylated soluble human FcγR2b (receptor, UniProt P31994 43-217, looked up)
chain: TPAAPPKAVLKLEPQWINVLQEDSVTLTCRGTHSPESDSIQWFHNGNLIPTHTQPSYRFKANNNDSGEYTCQTGQTSLSDPVHLTVLSEWLVLQTPHLEFQEGETIVLRCHSWKDKPLVKVTFFQNGKSKKFSRSDPNFSIPQANHSHSGDYHCTGNIGYTLYSSKPVTITVQAP
modifications: biotinylated
notes: Bought reagent; also called huFcγR2b; Hu R2b
Consider B5, for which the binding result in the assay with truncated EGFR (EGFRt) [1] is reported as “no binding”.
